From publication PMC1669733 come the findings set out here.

For assay [1], the target named is His-Rep 120–362 (Mungbean yellow mosaic India virus (MYMIV)). In words: sucrose gradient centrifugation.
Assay [2] addresses His-Rep 1–362 (full-length Rep protein of Mungbean yellow mosaic India virus) (Mungbean yellow mosaic India virus (MYMIV)). As to the kind of experiment: sucrose gradient centrifugation.

The term stoichiometry N denotes the number of molecules, sites or subunits per partner or assembly. Substance His-Rep 120–362 (domain or fragment) registered a stoichiometry N in assay [1] of 24. Regarding “His-Rep 1–362 (full-length Rep protein of Mungbean yellow mosaic India virus) (enzyme)”, the stoichiometry N in assay [2] was 24.
